# Reference: US20200199241A1 (Chugai, published 2020)
# T1: human FcγRIIa(R) (human, UniProt P12318 36-217)
# T1 construct: also called FcgRIIaR; FcγRIIa type R
# T1 chain: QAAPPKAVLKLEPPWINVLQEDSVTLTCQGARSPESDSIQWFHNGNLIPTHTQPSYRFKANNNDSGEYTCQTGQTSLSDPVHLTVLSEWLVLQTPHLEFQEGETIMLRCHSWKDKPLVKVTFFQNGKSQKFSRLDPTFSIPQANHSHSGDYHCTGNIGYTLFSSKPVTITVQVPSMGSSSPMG
# T2: human FcγRIIb (human, UniProt P31994 43-217, limits assumed)
# T2 construct: also called FcgRIIb
# T2 sequence: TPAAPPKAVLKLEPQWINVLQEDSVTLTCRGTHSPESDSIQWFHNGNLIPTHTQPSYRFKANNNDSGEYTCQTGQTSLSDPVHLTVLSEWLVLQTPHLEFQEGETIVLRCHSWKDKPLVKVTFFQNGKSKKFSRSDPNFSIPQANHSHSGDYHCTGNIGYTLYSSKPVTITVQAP
# T3: human FcγRIIa(H) (human, UniProt P12318 36-217)
# T3 construct: also called FcgRIIaH; FcγRIIa type H
# T3 sequence: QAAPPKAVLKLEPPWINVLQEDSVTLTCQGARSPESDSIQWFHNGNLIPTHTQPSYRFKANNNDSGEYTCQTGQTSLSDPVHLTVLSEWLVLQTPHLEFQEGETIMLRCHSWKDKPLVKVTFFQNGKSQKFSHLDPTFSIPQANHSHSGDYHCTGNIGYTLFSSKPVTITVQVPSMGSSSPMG
# Tests used:
# Assay in all cases: SPR (Biacore);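 note: antibody variants captured on sensor chip, Fcγ receptor flowed over at 25 °C, bound receptor normalized to amount of captured antibody, expressed relative to reference antibody set as 100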
# [1] = biological target: T4, human FcγRIa (human, UniProt P12314 16-292, limits assumed)
# T4 construct: also called FcgRIa; FcγRI (CD64)
# T4 sequence (P12314 16-292 limits assumed): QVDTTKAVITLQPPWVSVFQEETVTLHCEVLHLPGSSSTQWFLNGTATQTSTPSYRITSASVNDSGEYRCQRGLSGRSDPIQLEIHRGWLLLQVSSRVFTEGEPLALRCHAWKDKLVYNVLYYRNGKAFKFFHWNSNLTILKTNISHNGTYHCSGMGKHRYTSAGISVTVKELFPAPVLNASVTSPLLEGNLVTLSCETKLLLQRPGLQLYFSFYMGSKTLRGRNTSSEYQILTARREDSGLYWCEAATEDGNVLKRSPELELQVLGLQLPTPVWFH
# [2] = biological target: T1, human FcγRIIa(R)
# [3] = biological target: T5, human FcγRIIIa(F) (human, UniProt P08637 17-208, limits assumed)
# T5 construct: also called FcgRIIIaF; allotype F158
# T5 sequence (P08637 other isoform, or with tags, fused parts or gaps limits assumed): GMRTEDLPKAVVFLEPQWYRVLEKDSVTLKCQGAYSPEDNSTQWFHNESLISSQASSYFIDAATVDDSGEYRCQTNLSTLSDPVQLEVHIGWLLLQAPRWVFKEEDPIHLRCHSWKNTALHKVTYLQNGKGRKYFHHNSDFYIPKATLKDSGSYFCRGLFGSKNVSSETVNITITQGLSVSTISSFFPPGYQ
# [4] = biological target: T2, human FcγRIIb
# [5] = biological target: T3, human FcγRIIa(H)
relative binding activity [1],relative binding activity [2],relative binding activity [3],relative binding activity [4],relative binding activity [5],Binder
8 % of GpH7-B3/GpL16-k0,-1 % of GpH7-B3/GpL16-k0,-2 % of GpH7-B3/GpL16-k0,0 % of GpH7-B3/GpL16-k0,0 % of GpH7-B3/GpL16-k0,"GpH7-B3 variant D265K/GpL16-k0 (antibody, human IgG1, copies: 2 + 2) heavy: not shown light: DIVMTQSPLSLPVTPGEPASISCQASESLVHSNRNTYLHWYLQKPGQSPQLLIYKVSNRFSGVPDRFSGSGSGTDFTLKISRVEAEDVGVYYCSQNTHVPPTFGQGTKVEIE"
48 % of GpH7-B3/GpL16-k0,2 % of GpH7-B3/GpL16-k0,-2 % of GpH7-B3/GpL16-k0,1 % of GpH7-B3/GpL16-k0,5 % of GpH7-B3/GpL16-k0,"GpH7-B3 variant D265T/GpL16-k0 (antibody, human IgG1, copies: 2 + 2) heavy: not shown light: DIVMTQSPLSLPVTPGEPASISCQASESLVHSNRNTYLHWYLQKPGQSPQLLIYKVSNRFSGVPDRFSGSGSGTDFTLKISRVEAEDVGVYYCSQNTHVPPTFGQGTKVEIE"
74 % of GpH7-B3/GpL16-k0,-2 % of GpH7-B3/GpL16-k0,7 % of GpH7-B3/GpL16-k0,2 % of GpH7-B3/GpL16-k0,38 % of GpH7-B3/GpL16-k0,"GpH7-B3 variant D270W/GpL16-k0 (antibody, human IgG1, copies: 2 + 2) heavy: not shown light: DIVMTQSPLSLPVTPGEPASISCQASESLVHSNRNTYLHWYLQKPGQSPQLLIYKVSNRFSGVPDRFSGSGSGTDFTLKISRVEAEDVGVYYCSQNTHVPPTFGQGTKVEIE"
3 % of GpH7-B3/GpL16-k0,-1 % of GpH7-B3/GpL16-k0,-2 % of GpH7-B3/GpL16-k0,-2 % of GpH7-B3/GpL16-k0,0 % of GpH7-B3/GpL16-k0,"GpH7-B3 variant D265W/GpL16-k0 (antibody, human IgG1, copies: 2 + 2) heavy: not shown light: DIVMTQSPLSLPVTPGEPASISCQASESLVHSNRNTYLHWYLQKPGQSPQLLIYKVSNRFSGVPDRFSGSGSGTDFTLKISRVEAEDVGVYYCSQNTHVPPTFGQGTKVEIE"
98 % of GpH7-B3/GpL16-k0,23 % of GpH7-B3/GpL16-k0,20 % of GpH7-B3/GpL16-k0,15 % of GpH7-B3/GpL16-k0,50 % of GpH7-B3/GpL16-k0,"GpH7-B3 variant E269M/GpL16-k0 (antibody, human IgG1, copies: 2 + 2) heavy: not shown light: DIVMTQSPLSLPVTPGEPASISCQASESLVHSNRNTYLHWYLQKPGQSPQLLIYKVSNRFSGVPDRFSGSGSGTDFTLKISRVEAEDVGVYYCSQNTHVPPTFGQGTKVEIE"
64 % of GpH7-B3/GpL16-k0,-3 % of GpH7-B3/GpL16-k0,-1 % of GpH7-B3/GpL16-k0,-1 % of GpH7-B3/GpL16-k0,0 % of GpH7-B3/GpL16-k0,"GpH7-B3 variant D270P/GpL16-k0 (antibody, human IgG1, copies: 2 + 2) heavy: not shown light: DIVMTQSPLSLPVTPGEPASISCQASESLVHSNRNTYLHWYLQKPGQSPQLLIYKVSNRFSGVPDRFSGSGSGTDFTLKISRVEAEDVGVYYCSQNTHVPPTFGQGTKVEIE"
67 % of GpH7-B3/GpL16-k0,13 % of GpH7-B3/GpL16-k0,-1 % of GpH7-B3/GpL16-k0,4 % of GpH7-B3/GpL16-k0,13 % of GpH7-B3/GpL16-k0,"GpH7-B3 variant D265Q/GpL16-k0 (antibody, human IgG1, copies: 2 + 2) heavy: not shown light: DIVMTQSPLSLPVTPGEPASISCQASESLVHSNRNTYLHWYLQKPGQSPQLLIYKVSNRFSGVPDRFSGSGSGTDFTLKISRVEAEDVGVYYCSQNTHVPPTFGQGTKVEIE"
7 % of GpH7-B3/GpL16-k0,0 % of GpH7-B3/GpL16-k0,-1 % of GpH7-B3/GpL16-k0,0 % of GpH7-B3/GpL16-k0,0 % of GpH7-B3/GpL16-k0,"GpH7-B3 variant D265L/GpL16-k0 (antibody, human IgG1, copies: 2 + 2) heavy: not shown light: DIVMTQSPLSLPVTPGEPASISCQASESLVHSNRNTYLHWYLQKPGQSPQLLIYKVSNRFSGVPDRFSGSGSGTDFTLKISRVEAEDVGVYYCSQNTHVPPTFGQGTKVEIE"
5 % of GpH7-B3/GpL16-k0,-1 % of GpH7-B3/GpL16-k0,-1 % of GpH7-B3/GpL16-k0,-1 % of GpH7-B3/GpL16-k0,0 % of GpH7-B3/GpL16-k0,"GpH7-B3 variant D265R/GpL16-k0 (antibody, human IgG1, copies: 2 + 2) heavy: not shown light: DIVMTQSPLSLPVTPGEPASISCQASESLVHSNRNTYLHWYLQKPGQSPQLLIYKVSNRFSGVPDRFSGSGSGTDFTLKISRVEAEDVGVYYCSQNTHVPPTFGQGTKVEIE"
20 % of GpH7-B3/GpL16-k0,0 % of GpH7-B3/GpL16-k0,-2 % of GpH7-B3/GpL16-k0,1 % of GpH7-B3/GpL16-k0,2 % of GpH7-B3/GpL16-k0,"GpH7-B3 variant D265S/GpL16-k0 (antibody, human IgG1, copies: 2 + 2) heavy: not shown light: DIVMTQSPLSLPVTPGEPASISCQASESLVHSNRNTYLHWYLQKPGQSPQLLIYKVSNRFSGVPDRFSGSGSGTDFTLKISRVEAEDVGVYYCSQNTHVPPTFGQGTKVEIE"
